Test results taken from paper PMC9901791, “Structural insights into catalytical capability for CPT11 hydrolysis and substrate specificity of a novel marine microbial carboxylesterase, E93” (Frontiers in Microbiology, 2023).
Positions count from the first letter of the chain named. Numbers in names are those of the source.

Legend:
purified protein [1] = substrate: CCc1c2c(nc3ccc(OC(=O)N4CCC(N)CC4)cc13)-c1cc3c(c(=O)n1C2)COC(=O)[C@]3(O)CC; assay: purified protein; details: 5-200 uM substrate, 50 mM HEPES pH 7.4, 37 °C, 10 h
purified protein [2] = substrate: CCCCCC(=O)Oc1ccc([N+](=O)[O-])cc1; assay: purified protein; format: biochemical, Altericroceibacterium indicum; details: Tris-HCl pH 7.5, 45 °C
purified protein [3] = substrate: CCCC(=O)Oc1ccc([N+](=O)[O-])cc1; assay: purified protein; format: biochemical, Altericroceibacterium indicum; details: Tris-HCl pH 7.5, 45 °C
HPLC of SN38 formation [4] = substrate: CCc1c2c(nc3ccc(OC(=O)N4CCC(N)CC4)cc13)-c1cc3c(c(=O)n1C2)COC(=O)[C@]3(O)CC; assay: HPLC of SN38 formation; format: biochemical, Altericroceibacterium indicum; details: 5-200 uM substrate, 50 mM HEPES pH 7.4, 37 °C, 10 h
From the text: (§1) HPLC of SN38 formation on E93 | the kinetic parameters for the conversion of CPT11 and NPC were obtained from the HPLC

HPLC of SN38 formation [5] = substrate: CCc1c2c(nc3ccc(OC(=O)N4CCC(N5CCCCC5)CC4)cc13)-c1cc3c(c(=O)n1C2)COC(=O)[C@]3(O)CC; assay: HPLC of SN38 formation; format: biochemical, Altericroceibacterium indicum; details: pH 7.4; 37.0 °C
From the text: as §1

B1: E93 (Altericroceibacterium indicum; E428A) (protein)
chain: MARTRYGPVIGKVEQGALAFKGIPYGAPTSGSGRFMPPTPPQPWSTPLRAFDYGPTAPQSDPQDALESGAADARESEDCLTLNVWTPSLNDQRKRPVMVWLHGGGLWRLSAAGDYQAGTHLAAHSDVVMVSPNHRLNVLAHAYLDEYDPAFAGSSSAGMLDLVLALKWVRDNIEEFGGDPDNVTIFGQSGGGQKVSFLMAMPAAAGLFHKAIIQSGPAPLALEKPYARELSARLLTLLDIPKNRVRDIQNVPLDAIMRAYYQIFEELGGFGVMGVIQDFAPVVDDVALPQHPFWNGASPLSRDVPLMIGCTRTEMTEYFLASNPGAAKRDFAAVTAQLEPVFGMQAPAVVAHYRATHPTASPWEVDALIRSDWPTRLFTQRIADEQVKLGGAPVWMYRMDWQTTARDGLLMSPHAIDIPFVLDTVGTAPVEPGQLAEQQRMMQQMNNAWVSFARNGNPQNKYIPPWQPYNSTSRPTMIFNLHSHMANDPDGSDLAFLKKDLANLEVVAGGVTH
**Q.** What does the source list for B1?
**A.** Km (purified protein [1]): 85.07 ± 9.4 µM; kcat (purified protein [1]): 23.80 ± 2.34 ×10^-3 min^-1

B2: E93 (Altericroceibacterium indicum; T375I) (protein)
chain: B1 chain with T375I, A428E
notes: recombinant in E. coli BL21 (DE3), N-terminal His6-SUMO tag (pSMT3), Ni-NTA purified; 57 kDa; 510 residues modelled; catalytic triad S189, E314, H414
**Q.** Which Km (purified protein [2]) does the source give for B2 here?
**A.** 110 ± 10 µM

**Q.** What about the Km (purified protein [3]) of the same protein?
**A.** 100 ± 10 µM

B3: E93 (Altericroceibacterium indicum; Y318A) (protein)
chain: B1 chain with Y318A, A428E
**Q.** With B3 as the protein, how does the Km (purified protein [1]) read?
**A.** 55.47 ± 5.17 µM

**Q.** What about the kcat (purified protein [1]) of the same protein?
**A.** 40.87 ± 3.07 ×10^-3 min^-1

B4: E93 (Altericroceibacterium indicum; Q193A) (protein)
chain: B1 chain with Q193A, A428E
notes: as for B2
**Q.** Which Km (purified protein [2]) does the source give for B4 here?
**A.** 100 ± 10 µM

B5: E93 (Altericroceibacterium indicum; T375A) (protein)
chain: B1 chain with T375A, A428E
notes: as for B2
**Q.** For B5, which Km (purified protein [2]) is on record?
**A.** 130 ± 10 µM

B6: E93 (Altericroceibacterium indicum; W107A) (protein)
chain: B1 chain with W107A, A428E
notes: as for B2
**Q.** Which Km (purified protein [2]) does the source give for B6 here?
**A.** 210 ± 18 µM

B7: E93 (Altericroceibacterium indicum; M273A) (protein)
chain: B1 chain with M273A, A428E
notes: as for B2
**Q.** For B7, which Km (purified protein [2]) is on record?
**A.** 390 ± 25 µM

B8: E93 (Altericroceibacterium indicum) (protein)
chain: B1 chain with A428E
notes: as for B2
**Q.** What does the source list for B8?
**A.** Km (purified protein [2]): 180 ± 11 µM; Km (purified protein [3]; 0.02-3.50 mM substrate): 210 ± 20 µM; Km (HPLC of SN38 formation [4]): 75.66 ± 6.03 µM; kcat (HPLC of SN38 formation [4]): 35.40 ± 1.70 ×10^-3 min^-1; Km (HPLC of SN38 formation [5]): 70.17 ± 7.07 µM
